Assay results taken from IntAct's records for PubMed 22252131.

B1: E3 ubiquitin-protein ligase Hakai (Mus musculus), Q9JIY2 (parent)
chain: MDHTDNELQGTNSSGSLGGLDVRRRIPIKLISKQASKVKPAPRTQRTVSRMPAKAPQGDEEGFDYNEEQRYDCKGGELFGNQRRFPGHLFWDFKINILGEKDDTPVHFCDKCGLPIKVYGRMIPCKHVFCYDCAILHEKKGDKMCPGCSDPVQRIEQCTRGSLFMCSIVQGCKRTYLSQRDLQAHINHRHMRAGKPVTRASLENVHPPIAPPPTDIPDRFIMPPDKHHMSHIPPKQHIMMPPPPLQHVPHEHYNQPHEDIRAPPAELSMAPPPPRSVSQETFRISTRKHSNLITVPIQDDSSSGAREPPPPAPAPAHHHPEYQGQPVVSHPHHIMPPQQHYAPPPPPPPPISHPMPHPPQAAGTPHLVYSQAPPPPMTSAPPPITPPPGHIIAQMPPYMNHPPPGPPPPQHGGPPVTAPPPHHYNPNSLPQFTEDQGTLSPPFTQPGGMSPGIWPAPRGPPPPPRMQGPPSQTPLPGPHHPDQTRYRPYYQ
B2: Cadherin-1 (Homo sapiens), P12830 (parent)
chain: MGPWSRSLSALLLLLQVSSWLCQEPEPCHPGFDAESYTFTVPRRHLERGRVLGRVNFEDCTGRQRTAYFSLDTRFKVGTDGVITVKRPLRFHNPQIHFLVYAWDSTYRKFSTKVTLNTVGHHHRPPPHQASVSGIQAELLTFPNSSPGLRRQKRDWVIPPISCPENEKGPFPKNLVQIKSNKDKEGKVFYSITGQGADTPPVGVFIIERETGWLKVTEPLDRERIATYTLFSHAVSSNGNAVEDPMEILITVTDQNDNKPEFTQEVFKGSVMEGALPGTSVMEVTATDADDDVNTYNAAIAYTILSQDPELPDKNMFTINRNTGVISVVTTGLDRESFPTYTLVVQAADLQGEGLSTTATAVITVTDTNDNPPIFNPTTYKGQVPENEANVVITTLKVTDADAPNTPAWEAVYTILNDDGGQFVVTTNPVNNDGILKTAKGLDFEAKQQYILHVAVTNVVPFEVSLTTSTATVTVDVLDVNEAPIFVPPEKRVEVSEDFGVGQEITSYTAQEPDTFMEQKITYRIWRDTANWLEINPDTGAISTRAELDREDFEHVKNSTYTALIIATDNGSPVATGTGTLLLILSDVNDNAPIPEPRTIFFCERNPKPQVINIIDADLPPNTSPFTAELTHGASANWTIQYNDPTQESIILKPKMALEVGDYKINLKLMDNQNKDQVTTLEVSVCDCEGAAGVCRKAQPVEAGLQIPAILGILGGILALLILILLLLLFLRRRAVVKEPLLPPEDDTRDNVYYYDEEGGGEEDQDFDLSQLHRGLDARPEVTRNDVAPTLMSVPRYLPRPANPDEIGNFIDENLKAADTDPTAPPYDSLLVFDYEGSGSEAASLSSLNSSESDKDQDYDYLNEWGNRFKKLADMYGGGEDD

Variants of: B1
Details: with cadh1_human CDH1, P12830

Variant	effect of a mutation on the interaction
C166A	disrupting interaction

Variants of: B1
Details: with src8_human CTTN

Variant	effect of a mutation on the interaction
C166A	disrupting interaction

Variants of: B1
Details: with cadh1_human CDH1, P12830
Remark: another data set of the same source

Variant	effect of a mutation on the interaction
C172A	disrupting interaction

Variants of: B1
Details: with src8_human CTTN
Remark: another data set of the same source

Variant	effect of a mutation on the interaction
C172A	disrupting interaction

Variants of: B1
Details: with cadh1_human CDH1, P12830
Remark: another data set of the same source

Variant	effect of a mutation on the interaction
Y176A	disrupting interaction

Variants of: B1
Details: with src8_human CTTN
Remark: another data set of the same source

Variant	effect of a mutation on the interaction
Y176A	disrupting interaction

Variants of: B1
Details: with cadh1_human CDH1, P12830
Remark: another data set of the same source

Variant	effect of a mutation on the interaction
R189A	disrupting interaction

Variants of: B1
Details: with src8_human CTTN
Remark: another data set of the same source

Variant	effect of a mutation on the interaction
R189A	disrupting interaction

Variants of: B1
Details: with cadh1_human CDH1, P12830
Remark: another data set of the same source

Variant	effect of a mutation on the interaction
H190A	disrupting interaction

Variants of: B1
Details: with src8_human CTTN
Remark: another data set of the same source

Variant	effect of a mutation on the interaction
H190A	disrupting interaction

Variants of: B1
Details: with cadh1_human CDH1, P12830
Remark: another data set of the same source

Variant	effect of a mutation on the interaction
H185A	disrupting interaction

Variants of: B1
Details: with src8_human CTTN
Remark: another data set of the same source

Variant	effect of a mutation on the interaction
H185A	disrupting interaction

Variants of: B1
Details: with cadh1_human CDH1, P12830
Remark: another data set of the same source

Variant	effect of a mutation on the interaction
H127A	disrupting interaction

Variants of: B1
Details: with src8_human CTTN
Remark: another data set of the same source

Variant	effect of a mutation on the interaction
H127A	disrupting interaction

Variants of: B2
Details: with hakai_mouse Cbll1, Q9JIY2

Variant	effect of a mutation on the interaction
Y755F	disrupting interaction

Variants of: B2
Details: with hakai_mouse Cbll1, Q9JIY2
Remark: another data set of the same source

Variant	effect of a mutation on the interaction
V752A	disrupting interaction

Variants of: B2
Details: with hakai_mouse Cbll1, Q9JIY2
Remark: another data set of the same source

Variant	effect of a mutation on the interaction
Y754F	disrupting interaction

Variants of: B2
Details: with hakai_mouse Cbll1, Q9JIY2
Remark: another data set of the same source

Variant	effect of a mutation on the interaction
D756A	disrupting interaction

Variants of: B2
Details: with hakai_mouse Cbll1, Q9JIY2
Remark: another data set of the same source

Variant	effect of a mutation on the interaction
E757A	disrupting interaction

Variants of: B2
Details: with hakai_mouse Cbll1, Q9JIY2
Remark: another data set of the same source

Variant	effect of a mutation on the interaction
D750A	disrupting interaction

Variants of: B2
Details: with hakai_mouse Cbll1, Q9JIY2
Remark: another data set of the same source

Variant	effect of a mutation on the interaction
Y753F	disrupting interaction
